How the values were obtained:
Protein S (human) = Protein S (human) (UniProt P07225); experiment: fluorescence polarisation
[1] = target: Alexa-Fluor-488-labeled PS (human) (UniProt P07225); experiment: flow cytometry on cells
[2] = target: FIXa Padua mutant (R170L) (human) (UniProt P00740)
FIXa K132A/R170A (human) = FIXa K132A/R170A (human) (UniProt P00740)
FIXa N129A (human) = FIXa N129A (human) (UniProt P00740)
FIXa K132A (human) = FIXa K132A (human) (UniProt P00740)
FIXa K126A (human) = FIXa K126A (human) (UniProt P00740)
FIXa R150A (human) = FIXa R150A (human) (UniProt P00740)
FIXa R165A (human) = FIXa R165A (human) (UniProt P00740)
DEGR-FIXa R150A (human) = DEGR-FIXa R150A (human) (UniProt P00740); experiment: other fluorescence titration
DEGR-FIXa K132A (human) = DEGR-FIXa K132A (human) (UniProt P00740); experiment: other fluorescence titration
DEGR-FIXa N129A (human) = DEGR-FIXa N129A (human) (UniProt P00740); experiment: other fluorescence titration
DEGR-FIXa R165A (human) = DEGR-FIXa R165A (human) (UniProt P00740); experiment: other fluorescence titration
[3] = target: DEGR-FIXa Padua mutant (R170L) (human) (UniProt P00740); experiment: other fluorescence titration
DEGR-FIXa K126A (human) = DEGR-FIXa K126A (human) (UniProt P00740); experiment: other fluorescence titration
[4] = target: DEGR-labelled des-Gla FIXa (human); experiment: other fluorescence titration
Factor IXa wild type = Factor IXa wild type (human, UniProt P00740 47-191; P00740 227-461); experiment: cell-based or functional assay

For “FIXa Padua mutant (R170L) (from UniProt P00740 47-191) (enzyme)”, the IC50 (Protein S (human)) was 163 nM.

With “FIXa R165A (from UniProt P00740 47-191) (enzyme)” the IC50 (Protein S (human)) was 68 nM.

With zymogen form of FIX (natural protein) the IC50 (Protein S (human)) was 200 nM.

Molecule “fluorescently labeled des-Gla FIXa (domain or fragment)” has a median fluorescence intensity [1] of 4000.

With “FIXa K132A (from UniProt P00740 47-191) (enzyme)” the IC50 (Protein S (human)) was 213 nM.

Work on “FIXa R150A (from UniProt P00740 47-191) (enzyme)” yielded an IC50 (Protein S (human)) of 43 nM.

des-Gla FIXa (domain or fragment) gave an IC50 (Protein S (human)) of 135 nM.

In the case of “FIXa N129A (from UniProt P00740 47-191) (enzyme)”, the IC50 (Protein S (human)) is reported as 92 nM.

For “FIXa K126A (from UniProt P00740 47-191) (enzyme)”, the IC50 (Protein S (human)) was 140 nM.

B1: Protein S (natural protein, human, UniProt P07225 42-676, looked up)
chain: ANSLLEETKQGNLERECIEELCNKEEAREVFENDPETDYFYPKYLVCLRSFQTGLFTAARQSTNAYPDLRSCVNAIPDQCSPLPCNEDGYMSCKDGKASFTCTCKPGWQGEKCEFDINECKDPSNINGGCSQICDNTPGSYHCSCKNGFVMLSNKKDCKDVDECSLKPSICGTAVCKNIPGDFECECPEGYRYNLKSKSCEDIDECSENMCAQLCVNYPGGYTCYCDGKKGFKLAQDQKSCEVVSVCLPLNLDTKYELLYLAEQFAGVVLYLKFRLPEISRFSAEFDFRTYDSEGVILYAESIDHSAWLLIALRGGKIEVQLKNEHTSKITTGGDVINNGLWNMVSVEELEHSISIKIAKEAVMDINKPGPLFKPENGLLETKVYFAGFPRKVESELIKPINPRLDGCIRSWNLMKQGASGIKEIIQEKQNKHCLVTVEKGSYYPGSGIAQFHIDYNNVSSAEGWHVNVTLNIRPSTGTGVMLALVSGNNTVPFAVSLVDSTSEKSQDILLSVENTVIYRIQALSLCSDQQSHLEFRVNRNNLELSTPLKIETISHEDLQRQLAVLDKAMKAKVATYLGGLPDVPFSATPVNAFYNGCMEVNINGVQLDLDEAISKHNDIRAHSCPSVWKKTKNS
Molecule B1 has a Ki of inhibition by PS of FX activation by FIXa-phospholipid (S-2765) [2] of 175 nM, a Ki of inhibition by PS of FX activation by FIXa-phospholipid (S-2765) (FIXa K132A/R170A (human)) of 271 nM and a Ki of inhibition by PS of FX activation by FIXa-phospholipid (S-2765) (FIXa N129A (human)) of 72 nM. The Ki of inhibition by PS of FX activation by FIXa-phospholipid (S-2765) (FIXa K132A (human)) was 132 nM, the Ki of inhibition by PS of FX activation by FIXa-phospholipid (S-2765) (FIXa K126A (human)) was 100 nM and the Ki of inhibition by PS of FX activation by FIXa-phospholipid (S-2765) (FIXa R150A (human)) was 48 nM. It also gave a Ki of inhibition by PS of FX activation by FIXa-phospholipid (S-2765) (FIXa R165A (human)) of 33 nM, a Ki of inhibition by PS of FX activation in the Xase complex (FIXa-FVIIIa) (des-Gla FIXa (human)) of 120 nM and a Kd (DEGR-FIXa R150A (human)) of 48 nM. It also gave a Kd (DEGR-FIXa K132A (human)) of 148 nM, a Kd (DEGR-FIXa N129A (human)) of 77 nM and a Kd (DEGR-FIXa R165A (human)) of 54 nM. It also gave a Kd [3] of 157 nM, a Kd (DEGR-FIXa K126A (human)) of 118 nM and a Kd [4] of 124 nM. The “Ki of inhibition by PS of FX activation by FIXa-phospholipid (S-2765)” value (Factor IXa wild type) was 35 nM.

— article PMC5982114 (Arteriosclerosis, thrombosis, and vascular biology, 2018)
